Key:
[1] = Storage stability of solubilized recombinant NTF3 at -80 C; assay type: physicochemical; conditions: solubilized in 0.1% BSA/PBS, stored at -80 C
Description: Treatment with recombinant NTF3. Four months old mice were injected via tail vein for 4 consecutive days with recombinant NTF3 (STEMCELL technology, Vancouver, Canada; cat. 78074, lots 1000070683, 1000077434) diluted in sterile 0.9% saline (0.9% NaCl) or vehicle only. Mice were weighed daily and recombinant NTF3 given at 20 ng/g body weight or 100 ng/g body weight, respectively. Lyophilized NTF3 was solubilized in 0.1% BSA/PBS (bovine serum albumin, Sigma-Aldrich, St. Louis, MO; A3059) and stored at −80° C. until use.
Human HepG2 and mouse AML12 cells were grown in 6-well plates. Cells were treated with NTF3 (20 ng/ml) purchased from STEMCELL technologies, Vancouver, Canada (cat. 78074), R&D Systems, Minneapolis, MN (267-N3), Gibco, Waltham, MA (PHC7036) and/or Loxo-195 (5-10 nM) (Selleckchem, Houston, TX; S8636) in complete growth media without L-glutamine for 2 hours. Lyophilized NTF3 was solubilized with sterile filtered PBS supplemented with 0.1% BSA, aliquoted and stored at −80° C. until use. […] Protein concentration of supernatants were determined by Direct Detect Spectrophotometer (MilliporeSigma, Burlington, MA). […]
Immunoblotting. […] Protein concentration of supernatants was determined by Direct Detect Spectrophotometer (MilliporeSigma, Burlington, MA). […] The protein concentration of supernatants was determined by a Direct Detect® spectrophotometer (MilliporeSigma, Burlington, MA). […]

AML12 cells = experiment: Cell proliferation assay (CellTiter-Glo) in AML12 cells; assay type: cell-based, mouse; conditions: NTF3 20 ng/ml, AML12 (FIG. 9E-F)
Description: Cell lines. Human HepG2 (ATCC HB-8065) were maintained in MEM media with 10% FBS and the mouse hepatocyte cell line AML12 (ATCC, Manassas, VA; CRL-2254) in DMEM/F12 media supplemented with dexamethasone (40 ng/ml) and Insulin-Transferrin-Selenium (Gibco, Waltham, MA; 41400045), containing 10% FBS and 1% penicillin and streptomycin. JS1 (RRID: CVCL_C7PL), LX2 (RRID: CVCL_5792, MilliporeSigma, Burlington, MA; SCC064) and TWNT4 (RRID: CVCL_W296) cells were cultured in DMEM supplemented with 10% FBS. 293T cells (ATCC, Manassas, VA; CRL-3216) were cultured in DMEM supplemented with 10% FBS.
Cell proliferation assays. Primary mouse hepatocytes, HepG2 or AML 12 cells were grown in opaque-walled 96-well plates. NTF3 (final concentration 20 ng/ml) (STEMCELL Technologies, Vancouver, Canada; cat. 78074) and/or Loxo-195 (final concentration 5 nM) (Selleckchem, Houston, TX; S8636) were added into complete growth media without L-glutamine. Primary mouse hepatocytes were also grown in serum-free William's E media without supplements. Cells were analyzed by CellTiter-Glo® (Promega G7570, Madison, WI) which detects the number of viable cells on day 0 to day 5 by on detection systems GloMax® (Promega) or Bioteck Synergy H1 (Agilent, Santa Clara, CA). Mouse recombinant HGF (Abcam, Cambridge, UK; ab281797) was added to cell culture media at a final concentration 5 ng/ml. […]

## NTF3: neurotrophin-3, recombinant protein; HSC-derived hepatocyte mitogen, ligand of TRKA, TRKB, TRKC
[1]
  storage time at which activity and protein concentration declined significantly: approximately 3 months
AML12 cells
  cell proliferation: greatly stimulated cell proliferation

Source: patent US20250346643A1, “TROPOMYOSIN KINASE RECEPTOR (TRK) LIGANDS AS THERAPEUTICS TO SUPPORT LIVER REGENERATION” (Vanderbilt University, priority 2024, published 2025)
